Source: paper PMC2891831, “Insight into the Mechanisms of Adenovirus Capsid Disassembly from Studies of Defensin Neutralization” (PLoS Pathogens, 2010)
“Also recorded” adds a separate entry of the source.

How the values were obtained:
[1] = test system: Ad5.F35 capsid (hexon, penton base, fiber); assay: CryoEM difference map analysis of Ad5.F35+HD5; type: binding, human adenovirus; conditions: 20 µM HD5, 160 µg/ml Ad5.F35, cryoEM difference map, 12 Å resolution
Protocol: To obtain structural insight into the mechanism of α-defensin-mediated neutralization of HAdV infection, we studied a complex of Ad5.F35 (Ad35F) and HD5 by cryoelectron microscopy (cryoEM). This chimeric virus construct was chosen because of its short fiber and the availability of a cryoEM structure of Ad5.F35 in the absence of defensin for comparison, [31]. […] Ad5.F35 was incubated with a saturating concentration of HD5 (20 µM) then applied to grids and flash frozen for cryoEM. A dataset of 2,611 cryoEM particle images of the Ad5.F35+HD5 complex was collected and processed as performed earlier for Ad5.F35 [31]. The resolution of the icosahedral portion of the Ad5.F35+HD5 reconstruction is estimated as 12 Å by the FSC 0.5 threshold criterion, compared to 6.9 Å for the Ad5.F35 reconstruction. Both cryoEM structures are shown filtered to 12 Å resolution in Figure 4A. The most noticeable difference between the two structures is the presence of more density on top of penton base and around the fiber shaft in the Ad5.F35+HD5 structure. In addition, while the fiber knob is visible in the Ad5.F35 structure, it is only weakly reconstructed in the Ad5.F35+HD5 structure (Figure 4A inset). […]

[2] = test system: HAdV species C; assay: Infection assay (hexon staining), HAdV species C; type: cell-based, human adenovirus; conditions: 15 µM HD5, A549 cells, hexon staining at ~48 h, vs. no defensin
Protocol: To determine whether sensitivity to α-defensins is a general property of HAdVs, serotypes representative of HAdV species A–F were tested for infectivity in the presence of 15 µM HD5 or HNP1 (Figure 1). Wild type HAdVs rather than vectors were used for these studies, and infectivity was assessed by staining for hexon production. […] These studies indicate that sensitivity to α-defensins is species specific. In addition, particular HAdV serotypes are not equally sensitive to all defensins, indicating defensin sequence specificity as well.
Figure 1 Sensitivity to neutralization by alpha-defensins is AdV species specific. HAdVs were incubated with 15 µM HD5 (A) or HNP1 (B) and assessed for infectivity on A549 cells. Data are the mean of the percent infectivity compared to control cells infected with each virus in the absence of defensin for at least three independent experiments ± SD. The upper limit for quantification of this assay is 200%. […]
Prior to use in this assay, each virus stock was titrated on A549 cells. […] In parallel, wells were infected with two-fold serial dilutions of each virus to establish a standard curve for quantification with an upper limit of 200%. […] Total well fluorescence above background was quantified with ImageJ software. For each virus, samples were quantified by nonlinear regression against the standard curve using Prism software (GraphPad Software, Inc., La Jolla, CA).

B1: HD5: human alpha-defensin; synthetic, obtained from Peptides International; three disulfide bonds (PDB 1ZMP) (peptide, UniProt Q01523 20-94, looked up)
Defensin alpha 5: ESLQERADEATTQKQSGEDNQDLAISFAGNGLSALRTSGSQARATCYCRTGRCATRESLSGVCEISGRLYRLCCR
modifications: Defensin-5
[1]
  HD5 binding regions on capsid: HD5 difference density is also found within the central depression of the hexon trimers; also recorded: multiple binding sites for HD5 on the penton complex (penton base and fiber); also recorded: interacts with the exposed surfaces of the three major capsid proteins: hexon, penton base, and fiber; also recorded: extensive binding of HD5 to the fiber
[2]
  sensitivity to neutralization (infectivity): sensitive
